# US20110280859A1 (UNIVERSITY OF ROCHESTER, published 2011)
# Experiments:
# [1] = target: β1 integrins on human neutrophils (human, UniProt P05556 21-798); assay: cell-based or functional assay
# [2] = target: β3 integrins on human neutrophils (human, UniProt P05106 27-788); assay: cell-based or functional assay
# β3 integrins on human neutrophils, sequence (P05106 27-788): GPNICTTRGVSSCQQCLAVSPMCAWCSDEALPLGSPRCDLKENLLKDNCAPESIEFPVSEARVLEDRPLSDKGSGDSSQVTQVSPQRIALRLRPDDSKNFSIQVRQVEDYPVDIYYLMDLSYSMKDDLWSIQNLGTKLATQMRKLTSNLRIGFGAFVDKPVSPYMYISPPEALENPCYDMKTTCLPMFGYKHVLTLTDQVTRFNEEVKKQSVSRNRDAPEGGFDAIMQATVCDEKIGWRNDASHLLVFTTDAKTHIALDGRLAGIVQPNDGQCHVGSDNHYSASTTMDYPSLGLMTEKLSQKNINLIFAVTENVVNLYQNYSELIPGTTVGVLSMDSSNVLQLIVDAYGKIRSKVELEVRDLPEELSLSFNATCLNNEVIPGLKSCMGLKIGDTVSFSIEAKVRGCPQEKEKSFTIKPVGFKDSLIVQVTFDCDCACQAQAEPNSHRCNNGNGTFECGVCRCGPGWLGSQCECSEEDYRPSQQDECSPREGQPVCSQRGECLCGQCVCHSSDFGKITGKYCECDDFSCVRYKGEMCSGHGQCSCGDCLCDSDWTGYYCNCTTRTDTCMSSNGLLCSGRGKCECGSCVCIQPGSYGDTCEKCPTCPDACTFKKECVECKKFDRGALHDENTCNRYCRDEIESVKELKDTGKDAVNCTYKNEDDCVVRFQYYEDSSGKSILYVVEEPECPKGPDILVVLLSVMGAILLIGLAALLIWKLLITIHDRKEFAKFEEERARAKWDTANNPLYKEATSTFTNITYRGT
# β1 integrins on human neutrophils, sequence (P05556 21-798): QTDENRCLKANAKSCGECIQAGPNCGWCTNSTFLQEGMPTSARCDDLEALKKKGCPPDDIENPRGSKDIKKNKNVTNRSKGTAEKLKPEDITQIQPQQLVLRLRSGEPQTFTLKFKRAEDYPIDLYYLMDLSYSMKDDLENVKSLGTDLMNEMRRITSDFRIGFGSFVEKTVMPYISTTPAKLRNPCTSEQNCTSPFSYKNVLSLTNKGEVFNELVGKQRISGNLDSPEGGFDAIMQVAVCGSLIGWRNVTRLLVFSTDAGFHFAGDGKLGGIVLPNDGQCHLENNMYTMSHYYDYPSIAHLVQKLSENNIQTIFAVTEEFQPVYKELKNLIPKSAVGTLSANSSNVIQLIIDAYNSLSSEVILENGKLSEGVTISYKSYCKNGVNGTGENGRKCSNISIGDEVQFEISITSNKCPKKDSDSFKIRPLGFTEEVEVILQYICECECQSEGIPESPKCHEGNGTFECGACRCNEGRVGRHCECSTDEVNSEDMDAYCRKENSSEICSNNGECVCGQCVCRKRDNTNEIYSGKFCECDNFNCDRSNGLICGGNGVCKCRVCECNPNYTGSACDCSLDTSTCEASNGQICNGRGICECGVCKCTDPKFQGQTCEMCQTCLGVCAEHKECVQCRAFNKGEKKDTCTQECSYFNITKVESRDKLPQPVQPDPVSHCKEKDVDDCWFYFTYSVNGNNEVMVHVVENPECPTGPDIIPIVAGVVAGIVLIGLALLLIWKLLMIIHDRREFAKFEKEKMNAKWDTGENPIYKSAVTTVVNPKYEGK
binder,measurement,setting,value
Recombinant human activated protein C (enzyme) chain 1: ANSFLEELRHSSLERECIEEICDFEEAKEIFQNVDDTLAFWSKHVDGDQCLVLPLEHPCASLCCGHGTCIDGIGSFSCDCRSGWEGRFCQREVSFLNCSLDNGGCTHYCLEEVGWRRCSCAPGYKLGDDLLQCHPAVKFPCGRPWKRMEKKRSHL chain 2: LIDGKMTRRGDSPWQVVLLDSKKKLACGAVLIHPSWVLTAAHCMDESKKLLVRLGEYDLRRWEKWELDLDIKEVFVHPNYSKSTTDNDIALLHLAQPATLSQTIVPICLPDSGLAERELNQAGQETLVTGWGYHSSREKEAKRNRTFVLNFIKIPVVPHNECSEVMSNMVSENMLCAGILGDRQDACEGDSGGPMVASFHGTWFLVGLVSWGEGCGLLHNYGVYTKVSRYLDWIHGHIRDKEAPQKSWAP,"average lateral migration speed (S) of neutrophils on FN toward fMLP, micropipette assay",[1],2.5 fold
same,"average lateral migration speed (S) of neutrophils on FN toward fMLP, micropipette assay",[2],2.5 fold
